Assay results reported in US20250019457A1 (IBIO, published 2025).
Where two headings read alike, the source gives them in different places.

How the values were obtained:
[1] = target: T1, human TROP2 (purified recombinant antigen, Acro Biosystems Cat #TR2-H5223) (human, UniProt P09758 27-274); test: MSD assay: biotinylated TROP2 on streptavidin plate, antibody titrated, anti-human SULFO-TAG detection
T1 construct: Bought recombinant protein; also called huTROP2
T1 sequence: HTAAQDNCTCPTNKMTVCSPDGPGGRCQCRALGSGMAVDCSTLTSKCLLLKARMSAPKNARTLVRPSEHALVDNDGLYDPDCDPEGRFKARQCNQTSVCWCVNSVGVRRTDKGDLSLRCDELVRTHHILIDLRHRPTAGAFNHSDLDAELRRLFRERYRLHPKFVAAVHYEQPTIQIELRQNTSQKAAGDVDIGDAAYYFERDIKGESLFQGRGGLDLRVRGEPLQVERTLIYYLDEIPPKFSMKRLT

[2] = target: T1, human TROP2 (purified recombinant …); test: SPR, Carterra LSA; antibody captured on anti-human IgG, antigen injected; 1:1 fit
[3] = target: T2, cynomolgus/rhesus TROP2 (purified recombinant antigen, Acro Biosystems Cat #TR2-R52H3) (cynomolgus/rhesus, UniProt P09758 27-274 (human entry)); test: as above
T2 construct: Bought recombinant protein; also called cyTROP2; cyno/rhesus TROP2
T2 chain: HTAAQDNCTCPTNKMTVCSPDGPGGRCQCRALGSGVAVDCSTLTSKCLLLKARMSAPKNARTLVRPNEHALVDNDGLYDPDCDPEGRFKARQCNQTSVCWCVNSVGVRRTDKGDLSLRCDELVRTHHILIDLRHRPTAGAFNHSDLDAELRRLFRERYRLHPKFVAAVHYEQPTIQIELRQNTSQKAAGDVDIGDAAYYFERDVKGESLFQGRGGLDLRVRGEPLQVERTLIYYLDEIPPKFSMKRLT

[4] = target: T3, human Trop2 on cells (FaDu cells, endogenous; ExpiCHO cells overexpressing human Trop2) (human, UniProt P09758 27-323); test: flow cytometry on ExpiCHO cells overexpressing human Trop2, percent of cells bound
T3 construct: Cell-surface form
T3 sequence: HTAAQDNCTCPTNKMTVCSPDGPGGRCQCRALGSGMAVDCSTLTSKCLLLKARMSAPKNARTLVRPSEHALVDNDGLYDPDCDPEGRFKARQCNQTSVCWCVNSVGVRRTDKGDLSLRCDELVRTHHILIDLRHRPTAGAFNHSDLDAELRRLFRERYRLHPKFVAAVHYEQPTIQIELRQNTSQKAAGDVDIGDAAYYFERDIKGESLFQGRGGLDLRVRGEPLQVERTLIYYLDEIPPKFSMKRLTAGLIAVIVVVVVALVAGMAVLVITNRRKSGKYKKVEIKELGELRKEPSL

[5] = target: T3, human Trop2 on cells (FaDu cells, …); test: flow cytometry on FaDu cells (endogenous human Trop2); average of n=1-3 experiments
[6] = target: T1, human TROP2 (purified recombinant …); test: SPR, Carterra LSA; antibody captured on anti-human IgG, antigen injected; 1:1 fit; remark: listed apart in the source
[7] = target: T4, human EpCAM (purified recombinant antigen, Acro Biosystems Cat #EPM-H5223) (human, UniProt P16422 24-265); test: SPR, Carterra LSA; antibody captured on anti-human IgG, antigen injected
T4 construct: Bought recombinant protein
T4 sequence: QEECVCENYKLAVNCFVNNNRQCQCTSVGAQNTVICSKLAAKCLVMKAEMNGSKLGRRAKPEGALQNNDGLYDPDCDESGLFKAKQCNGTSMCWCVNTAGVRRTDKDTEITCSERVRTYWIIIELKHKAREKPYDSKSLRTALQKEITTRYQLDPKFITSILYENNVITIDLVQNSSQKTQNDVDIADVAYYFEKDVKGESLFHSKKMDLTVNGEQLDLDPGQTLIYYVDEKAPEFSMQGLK

[8] = target: T5, mouse Trop2 on ExpiCHO cells overexpressing mouse Trop2 (mouse, UniProt Q8BGV3 25-317); test: flow cytometry on ExpiCHO cells overexpressing mouse Trop2, percent of cells bound
T5 construct: Cell-surface form
T5 sequence: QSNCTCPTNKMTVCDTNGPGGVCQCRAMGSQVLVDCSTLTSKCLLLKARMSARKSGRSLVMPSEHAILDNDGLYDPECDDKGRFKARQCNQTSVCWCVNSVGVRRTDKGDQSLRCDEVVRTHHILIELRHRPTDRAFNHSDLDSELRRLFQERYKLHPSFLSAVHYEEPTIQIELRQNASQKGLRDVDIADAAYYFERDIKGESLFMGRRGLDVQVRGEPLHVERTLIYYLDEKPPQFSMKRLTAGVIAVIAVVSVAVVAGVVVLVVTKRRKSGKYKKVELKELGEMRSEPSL

[9] = target: T6, mouse TROP2 (purified recombinant antigen, Acro Biosystems Cat #TR2-M52H6) (mouse, UniProt Q8BGV3 25-270); test: SPR, Carterra LSA; antibody captured on anti-human IgG, antigen injected; 1:1 fit
T6 construct: Bought recombinant protein; also called msTROP2
T6 sequence: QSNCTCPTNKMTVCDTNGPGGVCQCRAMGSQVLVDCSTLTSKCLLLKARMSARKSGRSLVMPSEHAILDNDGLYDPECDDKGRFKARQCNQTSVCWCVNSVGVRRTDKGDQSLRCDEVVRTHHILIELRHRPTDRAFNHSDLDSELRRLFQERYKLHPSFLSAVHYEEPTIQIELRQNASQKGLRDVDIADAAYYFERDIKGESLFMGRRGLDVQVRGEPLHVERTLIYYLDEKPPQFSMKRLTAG

[10] = target: T6, mouse TROP2 (purified recombinant …); test: SPR, Carterra LSA; ratio of KD values, reference huTROP2

B1: RS7 (antibody, V domains shown)
VH: QVQLQQSGSELKKPGASVKVSCKASGYTFTNYGMNWVKQAPGQGLKWMGWINTYTGEPTYTDDFKGRFAFSLDTSVSTAYLQISSLKADDTAVYFCARGGFGSSYWYFDVWGQGSLVTVSS
VL: DIQLTQSPSSLSASVGDRVSITCKASQDVSIAVAWYQQKPGKAPKLLIYSASYRYTGVPDRFSGSGSGTDFTLTISSLQPEDFAVYYCQQHYITPLTFGAGTKVEIKR
[1]
  EC50 (read off the curve): ~0.3 nM
[2]
  Kd: 1.81 nM
[3]
  Kd: 2.05 nM
[4]
  EC50 (read off the curve): ~0.03 nM
[5]
  EC50: 2 nM
[6]
  Kd: 1.81 nM
  koff: 0.000201 s⁻¹
  kon: 111000 M⁻¹ s⁻¹

B2: SD-530939 (antibody, V domains shown)
VH: AVTLDESGGGLQTPGGGLSLVCKASGFDFIDYDMFWVRQAPGKGLEWVGVINRSGSYTNYAPAVKGRATISRDNGQSTLRLQLNNLRAEDTGTYYCARGACTHCWDADSAGYIDAWGHGTEVIVSS
VL: ALALTQPSSVSANPGETVKITCSGGYSGYGWYQQKSPGSAPVTVIYWNDKRPSNIPSRFSGSLSGSTNTLIITGVQAEDEAVYFCGGYDSSPGYVGIFGAGTTLTVL
notes: Chicken/human chimera
[7]
  binding result: no binding (tested: 1 µM top concentration)
[8]
  EC50 (read off the curve): ~0.02 nM
[1]
  EC50 (read off the curve): ~0.2 nM
[2]
  Kd: 0.46 nM
[3]
  Kd: 0.6 nM
[9]
  Kd: 0.96 nM
[4]
  EC50 (read off the curve): ~0.02 nM
[10]
  Fold difference in affinity (huTROP2:msTROP2): 2.1 fold
[5]
  EC50: 0.673 nM
[6]
  Kd: 0.46 nM
  koff: 0.000155 s⁻¹
  kon: 337000 M⁻¹ s⁻¹

B3: SD-589775 (antibody, V domains shown)
VH: AVTLDESGGGLQTPGGGLSLVCKASGFDFIDYDMFWVRQAPGKGLEWVGVINRSGSYTNYAPAVKGRATISRDNGQSTMRLQLNNLRAEDTGTYYCARGACTHCWDADSAGYIDAWGHGTEVIVSS
VL: ALALTQPSSVSANPGGTVKITCSGSSGSYGWHQQKSPGSAPVTVIYSSDKRPSDIPSRFSGALSGSTATLTITGVRAEDEAVYYCGGYDGSTDVGIFGAGTTLTVL
notes: Chicken/human chimera; also called parental chimera
[7]
  binding result: no binding (tested: 1 µM top concentration)
[8]
  EC50 (read off the curve): ~0.02 nM
[2]
  Kd: 0.35 nM
[3]
  Kd: 0.48 nM
[9]
  Kd: 0.35 nM
[4]
  EC50 (read off the curve): ~0.02 nM
[10]
  Fold difference in affinity (huTROP2:msTROP2): 1 fold
[5]
  EC50: 0.607 nM
[6]
  Kd: 0.35 nM
  koff: 0.000223 s⁻¹
  kon: 643000 M⁻¹ s⁻¹

B4: SD-320063 (antibody, V domains shown)
VH: AVTLDESGGGLQTPGGGLSLVCKASGFDFIDYDMFWVRQAPGKGLAWVGVINRSGSYTNYAPAVKGRATISRDNGQSTVRLQLNNLRAEDTGTYYCAKGVCTHCWDADSAGNIDAWGHGTEVIVSS
VL: ALALTQPSSVSANPGETVEITCSGGSGNYGWFQQKSPGSAPVTVIYNNNYRLSDIPSRFSGSASGSTATLTITGVRVEDEAVYFCGSADSTYVGLFGAGTTLTVL
notes: Chicken/human chimera
[7]
  binding result: no binding (tested: 1 µM top concentration)
[8]
  EC50 (read off the curve): ~0.03 nM
[2]
  Kd: 0.23 nM
[3]
  Kd: 0.11 nM
[9]
  Kd: 1.59 nM
[10]
  Fold difference in affinity (huTROP2:msTROP2): 6.9 fold
[5]
  EC50: 1.99 nM
[6]
  Kd: 0.23 nM
  koff: 3.42e-05 s⁻¹
  kon: 148000 M⁻¹ s⁻¹

B5: SD-802432 (antibody, V domains shown)
VH: AVTLDESGGGLQTPGGGLSLVCKASGFDFIDYDMFWVRQAPGKGLEWVAVINRSGSYTNYAPAVKGRATISRDNGQSTLRLQLNNLRAEDTGTYYCARGACTHCWDADSAGYIDTWGHGTEVIVSS
VL: ALALTQPSSVSANPGETVKITCSGGSGSYGWFQQKSPGIAPVIVIFNDDNRPSDIPSRFSGSKSGSTGTLTITGVQAEDEAVYFCGGYDGSTDAGIFGAGTTLTVL
notes: Chicken/human chimera
[7]
  binding result: no binding (tested: 1 µM top concentration)
[8]
  EC50 (read off the curve): ~0.02 nM
[1]
  EC50 (read off the curve): ~0.2 nM
[2]
  Kd: 0.1 nM
[3]
  Kd: 0.13 nM
[9]
  Kd: 0.3 nM
[4]
  EC50 (read off the curve): ~0.02 nM
[10]
  Fold difference in affinity (huTROP2:msTROP2): 2.9 fold
[5]
  EC50: 0.738 nM
[6]
  Kd: 0.1 nM
  koff: 5.53e-05 s⁻¹
  kon: 542000 M⁻¹ s⁻¹

B6: SD-685208 (antibody, V domains shown)
VH: AVTLDESGGGLQTPGGALSLVCKASGFDFIDYDMFWVRQAPGKGLEWVGVINRSGSYTNYAPAVKGRATISRDNGQSTMRLQLNNLRAEDTGTYYCARGACTHCWDADSAGYIDAWGHGTEVIVSS
VL: ALALTQPSSVSANPGETVKITCSGSSGSYGWFQQKSPGSAPVTVIYWNDKRPSDIPSRFSGSTSGSTGTLTITGVQADDEAVYFCGNADSSGTFGAGTTLTVL
notes: Chicken/human chimera
[7]
  binding result: no binding (tested: 1 µM top concentration)
[1]
  EC50 (read off the curve): ~0.08 nM
[2]
  Kd: 3.81 nM
[3]
  Kd: 6.08 nM
[9]
  Kd: 11.4 nM
[10]
  Fold difference in affinity (huTROP2:msTROP2): 3 fold
[5]
  EC50: 0.513 nM
[6]
  Kd: 3.81 nM
  koff: 0.000898 s⁻¹
  kon: 235000 M⁻¹ s⁻¹

B7: SD-168804 (antibody, V domains shown)
VH: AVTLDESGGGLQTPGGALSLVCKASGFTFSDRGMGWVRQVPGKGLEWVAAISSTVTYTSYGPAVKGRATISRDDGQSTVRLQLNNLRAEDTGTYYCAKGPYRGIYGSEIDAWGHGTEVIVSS
VL: ALALTQPSSVSANPGETVKITCSGGSYSYGSYYYGWYQQKSPGSAPVTVIYDNDKRPSGIPSRFSGSKSGSTGTLTITGVQAEDEAVYFCGSTDSSSTAAFGAGTTLTVL
notes: Chicken/human chimera
[7]
  binding result: no binding (tested: 1 µM top concentration)
[8]
  EC50 (read off the curve): ~5 nM
[2]
  Kd: 11.5 nM
[3]
  Kd: 15.3 nM
[9]
  Kd: 13.6 nM
[10]
  Fold difference in affinity (huTROP2:msTROP2): 1.2 fold
[5]
  EC50: 1.05 nM
[6]
  Kd: 11.5 nM
  koff: 0.000294 s⁻¹
  kon: 25500 M⁻¹ s⁻¹

B8: SD-970200 (antibody, V domains shown)
VH: AVTLDESGGGLQTPGGALSLVCKGSGFTFSSYAMGWVRQAPGKGLEYVAAISSGSSTGYGAAVKGRATISKDTGQSTVRLQLNNLRAEDTATYYCAKSGYGGSASYVSDIDAWGHGTEVIVSS
VL: ALALTQPSSVSANPGETVEITCSGGGDYYGTYYYGWYQQKAPGSAPVTVIYDNTKRPSNIPSRFSGSTSGSTNTLTITGVQADDEAVYYCGSYDSSAGIFGAGTTLTVL
notes: Chicken/human chimera
[7]
  binding result: no binding (tested: 1 µM top concentration)
[1]
  EC50 (read off the curve): ~0.2 nM
[2]
  Kd: 0.21 nM
[3]
  Kd: 0.29 nM
[9]
  Kd: 0.63 nM
[4]
  EC50 (read off the curve): ~0.05 nM
[10]
  Fold difference in affinity (huTROP2:msTROP2): 3 fold
[5]
  EC50: 1.53 nM
[6]
  Kd: 0.21 nM
  koff: 0.000114 s⁻¹
  kon: 555000 M⁻¹ s⁻¹
